Data: the supplement of paper PMC12764529
± gives the half width of the 95% confidence interval.

Assay: folding stability dG unfold (combined trypsin and chymotrypsin); higher = more stable
Method in brief: (§1)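 Unfolding free energy was derived, per protease or combined, by relating Bayesian-fitted K50 values from sequencing counts to a sequence-predicted unfolded-state K50 and a shared folded-state K50. The underlying digests exposed cysteine-free mini-proteins under 80 residues, in a PA-tagged cDNA display construct, to trypsin and chymotrypsin at 11 threefold-diluted concentrations and to a no-protease condition. A filter kept only designs with AlphaFold2 dimer inter-PAE above 15.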

Point of comparison: “SAGGSAGGSAGVVLTEDGYAVATVTVTTTTVEYDEETGEWKETTTTTTETLTVVVPVGATSAGGSAGGSAGG [r17_527_TrROS_Hall]”, “folding stability dG unfold” value 2.22 ± 0.098 kcal/mol. Against it:
- SAGGSAGGSAPPLKILRPEATVHPDGGVTVVAELEGGYLVVETVTFDPETGTASSSVEIVPLDSAGGSAGGS [r20_15_TrMRF] — lower, 0.705 ± 0.047 kcal/mol
- SAGGSAGGSAGGIGEGTPIERLIEGKPIPFYVDESTGKAYYTLPEDKKIETTIEDPEKVSAGGSAGGSAGGS [r10_1185_TrMRF] — lower, 0.202 ± 0.15 kcal/mol
- SAGMLNIPVDTPEKLLEIVKKLPGPVVVRSTSGTTVTVASLEELKEIAERGVPVELLLPEELPAEERAASAG [r5_677_JUSTAS] — lower, 0.576 ± 0.067 kcal/mol
- SAGGSAGGSAGKPLKVKKFEVELLVRDPETNRWYRIRAEVYRVEGLPDLFIIKLEIEELPSAGGSAGGSAGG [r11_1029_TrROS_Hall] — higher, 4.6 ± 0.11 kcal/mol
- SGLTLTLPVAPDEELKLTLKLPNTDETVEVEAETVAETGDVFAVAVATPPNGDKKVVPAVIKVEPGEPDESA [r9_770_TrMRF] — lower, 0.642 ± 0.12 kcal/mol
- SAKKVPKIEKIEFIPGPNLVKITIPVPEKDKLLVTIDLKDKKLEFELKKNTSFYFSAKYADIKVSVEKKSAG [r14_96_TrMRF] — higher, 3 ± 0.2 kcal/mol
- SAMTVELTLPSEELVEKIKELLPSYVKIEKVEVDEETKTVTVTVSFDPNLSPEEQQAVVEKIKKLIEEKSAG [r14_306_JUSTAS] — higher, 3.4 ± 0.28 kcal/mol
- SMPIEVRVDLERLEDGTLLAVIEIRHPDVQVAEDAAIELARELFPEDVELRIETTPDGRVIAPILLPLPESA [r9_646_TrMRF] — higher, 2.58 ± 0.22 kcal/mol
- SAGGAVEKNSNNPNTSPEKAKEIAEEIAEELKKEGHVPKSISFSEKENGKLTATIKIEDGKELTIGLSAGGS [r8_485_JUSTAS] — lower, < -1 kcal/mol
- SAGGSAGGSKKKYTVEELLKKLKPGDIALVKINGKWREVSVEELKKLPPGAEVEVEVFKLKPPSAGGSAGGS [r12_501_TrROS_Hall] — higher, 3.34 ± 0.16 kcal/mol
- SAGGSAGGSAGGSKKTIKVRIKIEVDGKTYEITVELPEEGMSLEELLKKFPNAKITEIESAGGSAGGSAGGS [r4_278_TrROS_Hall] — higher, 3.22 ± 0.23 kcal/mol
- SAGGSAGGSAMLVIRVYFEDTGRVLTLTADSEEEALEAIKRLLPPGAKIKKVEIFEVSEEDLSAGGSAGGSA [r18_350_TrROS_Hall] — higher, 4.33 ± 0.058 kcal/mol
- SAGMPPTTVEVKVTVVKTPEGYEVVAEVVTPDRTETLTIPPHLGLEEAKARLEAVLAERGLTLVDWTLESAG [r5_305_JUSTAS] — higher, 2.65 ± 0.057 kcal/mol
- SAGMMKIKITLENGEELTIEVSPEEKEKLKEGDIVEIRLEDGTVFKAEVVEVRPPGETVKIRITEAVPSAGG [r19_274_TrROS_Hall] — higher, 2.54 ± 0.16 kcal/mol
- SAGGPLEVTLVESETTFLPEGKVVTREVTRLPDDTILVTTYTTTIDPNSGTTTTTSETVVLPAGAALSAGGS [r16_639_JUSTAS] — lower, 1.49 ± 0.032 kcal/mol
- SAGSLKPSDLVLLRSRPVRVGGKPVVLVDLVVFHPDGSASRAVLTLPSGVGPPVVGVVPVPALVRLIASSAG [r5_831_TrMRF] — lower, 1.95 ± 0.12 kcal/mol

Assay: folding stability dG unfold from chymotrypsin proteolysis; higher = more stable
Method in brief: as §1

Point of comparison: “SAGMPPTTVEVKVTVVKTPEGYEVVAEVVTPDRTETLTIPPHLGLEEAKARLEAVLAERGLTLVDWTLESAG [r5_305_JUSTAS]”, “folding stability dG unfold” value 2.65 ± 0.041 kcal/mol. Against it:
- SAGGSAGGSAPPLKILRPEATVHPDGGVTVVAELEGGYLVVETVTFDPETGTASSSVEIVPLDSAGGSAGGS [r20_15_TrMRF] — lower, 1.03 ± 0.015 kcal/mol
- SAGGSAGGSAGGIGEGTPIERLIEGKPIPFYVDESTGKAYYTLPEDKKIETTIEDPEKVSAGGSAGGSAGGS [r10_1185_TrMRF] — lower, 0.442 ± 0.22 kcal/mol
- SAGMLNIPVDTPEKLLEIVKKLPGPVVVRSTSGTTVTVASLEELKEIAERGVPVELLLPEELPAEERAASAG [r5_677_JUSTAS] — lower, 0.872 ± 0.041 kcal/mol
- SAGGSAGGSAGKPLKVKKFEVELLVRDPETNRWYRIRAEVYRVEGLPDLFIIKLEIEELPSAGGSAGGSAGG [r11_1029_TrROS_Hall] — higher, 4.82 ± 0.099 kcal/mol
- SGLTLTLPVAPDEELKLTLKLPNTDETVEVEAETVAETGDVFAVAVATPPNGDKKVVPAVIKVEPGEPDESA [r9_770_TrMRF] — lower, 0.332 ± 0.16 kcal/mol
- SAKKVPKIEKIEFIPGPNLVKITIPVPEKDKLLVTIDLKDKKLEFELKKNTSFYFSAKYADIKVSVEKKSAG [r14_96_TrMRF] — higher, 3.11 ± 0.14 kcal/mol
- SAMTVELTLPSEELVEKIKELLPSYVKIEKVEVDEETKTVTVTVSFDPNLSPEEQQAVVEKIKKLIEEKSAG [r14_306_JUSTAS] — higher, 3.56 ± 0.26 kcal/mol
- SMPIEVRVDLERLEDGTLLAVIEIRHPDVQVAEDAAIELARELFPEDVELRIETTPDGRVIAPILLPLPESA [r9_646_TrMRF] — lower, 1.74 ± 0.17 kcal/mol
- SAGGAVEKNSNNPNTSPEKAKEIAEEIAEELKKEGHVPKSISFSEKENGKLTATIKIEDGKELTIGLSAGGS [r8_485_JUSTAS] — lower, -0.467 ± 0.17 kcal/mol
- SAGGSAGGSKKKYTVEELLKKLKPGDIALVKINGKWREVSVEELKKLPPGAEVEVEVFKLKPPSAGGSAGGS [r12_501_TrROS_Hall] — higher, 3.51 ± 0.072 kcal/mol
- SAGGSAGGSAGGSKKTIKVRIKIEVDGKTYEITVELPEEGMSLEELLKKFPNAKITEIESAGGSAGGSAGGS [r4_278_TrROS_Hall] — higher, 3.08 ± 0.17 kcal/mol
- SAGGSAGGSAMLVIRVYFEDTGRVLTLTADSEEEALEAIKRLLPPGAKIKKVEIFEVSEEDLSAGGSAGGSA [r18_350_TrROS_Hall] — higher, 4.439 ± 0.041 kcal/mol
- SAGGSAGGSAGVVLTEDGYAVATVTVTTTTVEYDEETGEWKETTTTTTETLTVVVPVGATSAGGSAGGSAGG [r17_527_TrROS_Hall] — lower, 1.6 ± 0.14 kcal/mol
- SAGMMKIKITLENGEELTIEVSPEEKEKLKEGDIVEIRLEDGTVFKAEVVEVRPPGETVKIRITEAVPSAGG [r19_274_TrROS_Hall] — higher, 2.9 ± 0.035 kcal/mol
- SAGGPLEVTLVESETTFLPEGKVVTREVTRLPDDTILVTTYTTTIDPNSGTTTTTSETVVLPAGAALSAGGS [r16_639_JUSTAS] — lower, 0.627 ± 0.068 kcal/mol
- SAGSLKPSDLVLLRSRPVRVGGKPVVLVDLVVFHPDGSASRAVLTLPSGVGPPVVGVVPVPALVRLIASSAG [r5_831_TrMRF] — lower, 2.14 ± 0.084 kcal/mol

Assay: folding stability dG unfold from trypsin proteolysis; higher = more stable
Method in brief: as §1

Point of comparison: “SAKKVPKIEKIEFIPGPNLVKITIPVPEKDKLLVTIDLKDKKLEFELKKNTSFYFSAKYADIKVSVEKKSAG [r14_96_TrMRF]”, “folding stability dG unfold” value 2.28 ± 0.16 kcal/mol. Against it:
- SAGGSAGGSAPPLKILRPEATVHPDGGVTVVAELEGGYLVVETVTFDPETGTASSSVEIVPLDSAGGSAGGS [r20_15_TrMRF] — lower, -0.813 ± 0.12 kcal/mol
- SAGGSAGGSAGGIGEGTPIERLIEGKPIPFYVDESTGKAYYTLPEDKKIETTIEDPEKVSAGGSAGGSAGGS [r10_1185_TrMRF] — lower, -0.377 ± 0.19 kcal/mol
- SAGMLNIPVDTPEKLLEIVKKLPGPVVVRSTSGTTVTVASLEELKEIAERGVPVELLLPEELPAEERAASAG [r5_677_JUSTAS] — lower, 0.0824 ± 0.051 kcal/mol
- SAGGSAGGSAGKPLKVKKFEVELLVRDPETNRWYRIRAEVYRVEGLPDLFIIKLEIEELPSAGGSAGGSAGG [r11_1029_TrROS_Hall] — higher, 3.96 ± 0.12 kcal/mol
- SGLTLTLPVAPDEELKLTLKLPNTDETVEVEAETVAETGDVFAVAVATPPNGDKKVVPAVIKVEPGEPDESA [r9_770_TrMRF] — lower, 0.704 ± 0.038 kcal/mol
- SAMTVELTLPSEELVEKIKELLPSYVKIEKVEVDEETKTVTVTVSFDPNLSPEEQQAVVEKIKKLIEEKSAG [r14_306_JUSTAS] — higher, 2.7 ± 0.2 kcal/mol
- SMPIEVRVDLERLEDGTLLAVIEIRHPDVQVAEDAAIELARELFPEDVELRIETTPDGRVIAPILLPLPESA [r9_646_TrMRF] — higher, 3.14 ± 0.14 kcal/mol
- SAGGAVEKNSNNPNTSPEKAKEIAEEIAEELKKEGHVPKSISFSEKENGKLTATIKIEDGKELTIGLSAGGS [r8_485_JUSTAS] — lower, -0.343 ± 0.16 kcal/mol
- SAGGSAGGSKKKYTVEELLKKLKPGDIALVKINGKWREVSVEELKKLPPGAEVEVEVFKLKPPSAGGSAGGS [r12_501_TrROS_Hall] — higher, 2.84 ± 0.11 kcal/mol
- SAGGSAGGSAGGSKKTIKVRIKIEVDGKTYEITVELPEEGMSLEELLKKFPNAKITEIESAGGSAGGSAGGS [r4_278_TrROS_Hall] — higher, 3.15 ± 0.26 kcal/mol
- SAGGSAGGSAMLVIRVYFEDTGRVLTLTADSEEEALEAIKRLLPPGAKIKKVEIFEVSEEDLSAGGSAGGSA [r18_350_TrROS_Hall] — higher, 4.08 ± 0.071 kcal/mol
- SAGGSAGGSAGVVLTEDGYAVATVTVTTTTVEYDEETGEWKETTTTTTETLTVVVPVGATSAGGSAGGSAGG [r17_527_TrROS_Hall] — higher, 2.66 ± 0.2 kcal/mol
- SAGMPPTTVEVKVTVVKTPEGYEVVAEVVTPDRTETLTIPPHLGLEEAKARLEAVLAERGLTLVDWTLESAG [r5_305_JUSTAS] — higher, 2.71 ± 0.047 kcal/mol
- SAGMMKIKITLENGEELTIEVSPEEKEKLKEGDIVEIRLEDGTVFKAEVVEVRPPGETVKIRITEAVPSAGG [r19_274_TrROS_Hall] — lower, 1.67 ± 0.086 kcal/mol
- SAGGPLEVTLVESETTFLPEGKVVTREVTRLPDDTILVTTYTTTIDPNSGTTTTTSETVVLPAGAALSAGGS [r16_639_JUSTAS] — within error, 2.11 ± 0.046 kcal/mol
- SAGSLKPSDLVLLRSRPVRVGGKPVVLVDLVVFHPDGSASRAVLTLPSGVGPPVVGVVPVPALVRLIASSAG [r5_831_TrMRF] — lower, 1.53 ± 0.047 kcal/mol
